Measurements from publication PMC6311007.

Molecular target: porcine CSF1 fused to an antibody Fc region (pCSF1-Fc), produced in egg white of transgenic hens (porcine)
Test: non-reducing SDS-PAGE; pCSF1-Fc purified from egg white (MabSelect SuRe, SEC), non-reducing SDS-PAGE stained with Instant Blue

stoichiometry N: 2
Substance: porcine CSF1 fused to an antibody Fc region (pCSF1-Fc), produced in egg white of transgenic hens (Fc fusion)
